pKd: −log10 of the molar value.
How the values were obtained:
[1] = molecular target: Recombinant trimeric Ad5 knob protein with an N-terminal 6-His tag (adenovirus type 5 (Ad5)) (UniProt P11818); experiment: ELISA on His-tagged Ad5 knob on Ni-NTA strips, detection with anti-FGF2 antibody and anti-rabbit HRP; wells without knob gave 0.35+0.04
FGF receptors = experiment: cell-based or functional assay
[2] = molecular target: Recombinant trimeric Ad5 knob protein with an N-terminal 6-His tag (adenovirus type 5 (Ad5)) (UniProt P11818); experiment: ELISA on His-tagged Ad5 knob on Ni-NTA strips, detection with anti-FGF2 antibody and anti-rabbit HRP; control
[3] = molecular target: recombinant Ad5 knob (knob domain of the adenovirus type 5 fiber protein) (adenovirus type 5 (Ad5)) (UniProt P11818); experiment: Biacore analysis
[4] = molecular target: adenoviral fiber knob on AdCMVLuc (Ad5 vector) virions (adenovirus type 5 (Ad5)) (UniProt P11818); experiment: cell-based or functional assay

Fab-FGF2 conjugate (1D6.14 Fab chemically conjugated to FGF2 C96S mutein) (from UniProt P09038 1-155)
absorbance [1]: 3.7 absorbance
inhibition by anti-FGF2 antibody of infection by the Ad-Fab-FGF2 complex (luciferase), 3T3 cells (FGF receptors): 96.1%
inhibition by anti-FGF2 antibody of infection by the Ad-Fab-FGF2 complex (luciferase), D54 MG cells (FGF receptors): 94%
inhibition by anti-FGF2 antibody of infection by the Ad-Fab-FGF2 complex (luciferase), PANC-1 cells (FGF receptors): 96.3%
inhibition by anti-FGF2 antibody of infection by the Ad-Fab-FGF2 complex (luciferase), SKOV3.1p1 cells (FGF receptors): 90.1%

FGF2 mutein (C96S) (from UniProt P09038 1-155) (ligand)
absorbance [2]: 1.55 absorbance

Fab fragment of 1D6.14 anti-Ad5 knob neutralizing antibody
pKd [3]: 8.68
block of AdCMV-Luc transduction (luciferase), CVU-1 cells [4]: 20%
block of AdCMV-Luc transduction (luciferase), KS-SLK cells [4]: > 50%
block of AdCMV-Luc transduction (luciferase), KSY-1 cells [4]: > 50%
block of AdCMV-Luc transduction (luciferase), RW376 cells [4]: > 50%
inhibition of AdCMVLuc infection (luciferase), 3T3 cells [4]: 97%
inhibition of AdCMVLuc infection (luciferase), D54 MG cells [4]: 98.3%
inhibition of AdCMVLuc infection (luciferase), PANC-1 cells [4]: 98.8%
inhibition of AdCMVLuc infection (luciferase), SKOV3.1p1 cells [4]: 69.3%
inhibition of AdCMVLuc transfection (luciferase), HUVECs [4]: 87%
